Laboratory results published in patent publication US20250334575A1 (UNIVERSITY OF VERMONT AND STATE AGRICULTURE COLLEGE, published 2025).

Assays:
[1] = target: FcγRIIa (low affinity immunoglobulin gamma Fc region receptor II-a) (human) (UniProt P12318); assay: co-immunoprecipitation with FcγRIIa from activated platelets, mass spectrometry of the excised band
[2] = target: FcγRIIa (low affinity immunoglobulin gamma Fc region receptor II-a) (human) (UniProt P12318); assay: cell-based or functional assay
[3] = target: activated GP IIb-IIIa (human, UniProt P08514 32-1039; P05106 27-788); assay: cell-based or functional assay
activated GP IIb-IIIa, sequence (P08514 32-1039, chain 1 of 2): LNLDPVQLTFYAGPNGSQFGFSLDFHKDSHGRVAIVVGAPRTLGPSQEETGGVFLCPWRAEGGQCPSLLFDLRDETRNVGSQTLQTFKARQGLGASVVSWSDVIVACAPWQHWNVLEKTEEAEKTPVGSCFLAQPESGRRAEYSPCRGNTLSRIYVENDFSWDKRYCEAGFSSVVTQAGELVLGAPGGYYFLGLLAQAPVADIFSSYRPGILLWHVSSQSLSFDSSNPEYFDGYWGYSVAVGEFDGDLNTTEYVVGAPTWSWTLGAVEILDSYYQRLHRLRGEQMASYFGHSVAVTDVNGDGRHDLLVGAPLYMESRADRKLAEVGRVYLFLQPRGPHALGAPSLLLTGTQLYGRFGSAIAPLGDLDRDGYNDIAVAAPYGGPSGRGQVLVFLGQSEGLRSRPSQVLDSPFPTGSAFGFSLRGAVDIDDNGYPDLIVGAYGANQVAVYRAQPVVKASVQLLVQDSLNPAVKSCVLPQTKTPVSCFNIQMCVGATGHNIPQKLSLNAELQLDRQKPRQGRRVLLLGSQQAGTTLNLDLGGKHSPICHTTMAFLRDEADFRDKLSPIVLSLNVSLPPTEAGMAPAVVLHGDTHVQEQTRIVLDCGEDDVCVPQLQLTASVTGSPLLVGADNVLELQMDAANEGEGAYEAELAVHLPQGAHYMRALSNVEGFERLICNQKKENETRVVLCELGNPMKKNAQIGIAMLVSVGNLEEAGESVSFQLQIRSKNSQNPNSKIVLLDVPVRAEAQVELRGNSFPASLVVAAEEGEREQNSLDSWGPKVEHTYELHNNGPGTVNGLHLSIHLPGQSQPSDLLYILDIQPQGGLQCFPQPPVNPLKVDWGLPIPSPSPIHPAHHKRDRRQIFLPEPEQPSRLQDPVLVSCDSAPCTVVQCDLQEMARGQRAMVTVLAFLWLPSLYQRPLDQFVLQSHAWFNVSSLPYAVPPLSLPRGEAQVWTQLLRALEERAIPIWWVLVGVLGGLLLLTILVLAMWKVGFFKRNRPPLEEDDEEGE
activated GP IIb-IIIa, sequence (P05106 27-788, chain 2 of 2): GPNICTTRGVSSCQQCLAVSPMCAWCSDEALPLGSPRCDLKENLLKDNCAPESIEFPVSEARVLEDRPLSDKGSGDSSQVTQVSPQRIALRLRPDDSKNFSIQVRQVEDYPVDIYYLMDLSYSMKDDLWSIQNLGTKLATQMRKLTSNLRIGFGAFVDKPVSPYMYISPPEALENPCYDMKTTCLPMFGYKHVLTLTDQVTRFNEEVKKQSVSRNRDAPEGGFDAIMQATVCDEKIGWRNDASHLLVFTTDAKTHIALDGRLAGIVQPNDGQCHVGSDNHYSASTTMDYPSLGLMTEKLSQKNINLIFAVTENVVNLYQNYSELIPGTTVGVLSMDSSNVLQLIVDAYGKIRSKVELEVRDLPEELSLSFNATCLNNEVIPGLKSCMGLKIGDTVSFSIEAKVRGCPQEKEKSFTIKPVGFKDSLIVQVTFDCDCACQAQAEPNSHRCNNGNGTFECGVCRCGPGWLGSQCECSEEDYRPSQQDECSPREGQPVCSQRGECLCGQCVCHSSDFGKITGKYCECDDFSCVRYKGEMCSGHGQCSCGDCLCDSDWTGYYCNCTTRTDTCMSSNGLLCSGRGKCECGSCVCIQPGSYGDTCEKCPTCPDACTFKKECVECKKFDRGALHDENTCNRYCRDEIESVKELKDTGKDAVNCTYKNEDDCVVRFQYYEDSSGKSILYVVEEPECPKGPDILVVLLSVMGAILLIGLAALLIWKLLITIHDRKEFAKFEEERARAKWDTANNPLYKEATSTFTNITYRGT

FcγRIIa (low affinity immunoglobulin gamma Fc region receptor II-a) (human), sequence (P12318 34-317 limits assumed, form in doubt): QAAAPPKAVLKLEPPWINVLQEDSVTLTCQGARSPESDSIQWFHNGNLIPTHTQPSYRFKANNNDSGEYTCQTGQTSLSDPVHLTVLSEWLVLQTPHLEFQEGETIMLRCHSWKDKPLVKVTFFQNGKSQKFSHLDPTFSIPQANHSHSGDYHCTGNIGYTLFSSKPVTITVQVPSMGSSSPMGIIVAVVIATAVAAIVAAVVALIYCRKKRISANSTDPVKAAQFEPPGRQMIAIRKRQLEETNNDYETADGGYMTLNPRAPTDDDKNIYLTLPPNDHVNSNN
filamin, sequence (P21333 2-2647): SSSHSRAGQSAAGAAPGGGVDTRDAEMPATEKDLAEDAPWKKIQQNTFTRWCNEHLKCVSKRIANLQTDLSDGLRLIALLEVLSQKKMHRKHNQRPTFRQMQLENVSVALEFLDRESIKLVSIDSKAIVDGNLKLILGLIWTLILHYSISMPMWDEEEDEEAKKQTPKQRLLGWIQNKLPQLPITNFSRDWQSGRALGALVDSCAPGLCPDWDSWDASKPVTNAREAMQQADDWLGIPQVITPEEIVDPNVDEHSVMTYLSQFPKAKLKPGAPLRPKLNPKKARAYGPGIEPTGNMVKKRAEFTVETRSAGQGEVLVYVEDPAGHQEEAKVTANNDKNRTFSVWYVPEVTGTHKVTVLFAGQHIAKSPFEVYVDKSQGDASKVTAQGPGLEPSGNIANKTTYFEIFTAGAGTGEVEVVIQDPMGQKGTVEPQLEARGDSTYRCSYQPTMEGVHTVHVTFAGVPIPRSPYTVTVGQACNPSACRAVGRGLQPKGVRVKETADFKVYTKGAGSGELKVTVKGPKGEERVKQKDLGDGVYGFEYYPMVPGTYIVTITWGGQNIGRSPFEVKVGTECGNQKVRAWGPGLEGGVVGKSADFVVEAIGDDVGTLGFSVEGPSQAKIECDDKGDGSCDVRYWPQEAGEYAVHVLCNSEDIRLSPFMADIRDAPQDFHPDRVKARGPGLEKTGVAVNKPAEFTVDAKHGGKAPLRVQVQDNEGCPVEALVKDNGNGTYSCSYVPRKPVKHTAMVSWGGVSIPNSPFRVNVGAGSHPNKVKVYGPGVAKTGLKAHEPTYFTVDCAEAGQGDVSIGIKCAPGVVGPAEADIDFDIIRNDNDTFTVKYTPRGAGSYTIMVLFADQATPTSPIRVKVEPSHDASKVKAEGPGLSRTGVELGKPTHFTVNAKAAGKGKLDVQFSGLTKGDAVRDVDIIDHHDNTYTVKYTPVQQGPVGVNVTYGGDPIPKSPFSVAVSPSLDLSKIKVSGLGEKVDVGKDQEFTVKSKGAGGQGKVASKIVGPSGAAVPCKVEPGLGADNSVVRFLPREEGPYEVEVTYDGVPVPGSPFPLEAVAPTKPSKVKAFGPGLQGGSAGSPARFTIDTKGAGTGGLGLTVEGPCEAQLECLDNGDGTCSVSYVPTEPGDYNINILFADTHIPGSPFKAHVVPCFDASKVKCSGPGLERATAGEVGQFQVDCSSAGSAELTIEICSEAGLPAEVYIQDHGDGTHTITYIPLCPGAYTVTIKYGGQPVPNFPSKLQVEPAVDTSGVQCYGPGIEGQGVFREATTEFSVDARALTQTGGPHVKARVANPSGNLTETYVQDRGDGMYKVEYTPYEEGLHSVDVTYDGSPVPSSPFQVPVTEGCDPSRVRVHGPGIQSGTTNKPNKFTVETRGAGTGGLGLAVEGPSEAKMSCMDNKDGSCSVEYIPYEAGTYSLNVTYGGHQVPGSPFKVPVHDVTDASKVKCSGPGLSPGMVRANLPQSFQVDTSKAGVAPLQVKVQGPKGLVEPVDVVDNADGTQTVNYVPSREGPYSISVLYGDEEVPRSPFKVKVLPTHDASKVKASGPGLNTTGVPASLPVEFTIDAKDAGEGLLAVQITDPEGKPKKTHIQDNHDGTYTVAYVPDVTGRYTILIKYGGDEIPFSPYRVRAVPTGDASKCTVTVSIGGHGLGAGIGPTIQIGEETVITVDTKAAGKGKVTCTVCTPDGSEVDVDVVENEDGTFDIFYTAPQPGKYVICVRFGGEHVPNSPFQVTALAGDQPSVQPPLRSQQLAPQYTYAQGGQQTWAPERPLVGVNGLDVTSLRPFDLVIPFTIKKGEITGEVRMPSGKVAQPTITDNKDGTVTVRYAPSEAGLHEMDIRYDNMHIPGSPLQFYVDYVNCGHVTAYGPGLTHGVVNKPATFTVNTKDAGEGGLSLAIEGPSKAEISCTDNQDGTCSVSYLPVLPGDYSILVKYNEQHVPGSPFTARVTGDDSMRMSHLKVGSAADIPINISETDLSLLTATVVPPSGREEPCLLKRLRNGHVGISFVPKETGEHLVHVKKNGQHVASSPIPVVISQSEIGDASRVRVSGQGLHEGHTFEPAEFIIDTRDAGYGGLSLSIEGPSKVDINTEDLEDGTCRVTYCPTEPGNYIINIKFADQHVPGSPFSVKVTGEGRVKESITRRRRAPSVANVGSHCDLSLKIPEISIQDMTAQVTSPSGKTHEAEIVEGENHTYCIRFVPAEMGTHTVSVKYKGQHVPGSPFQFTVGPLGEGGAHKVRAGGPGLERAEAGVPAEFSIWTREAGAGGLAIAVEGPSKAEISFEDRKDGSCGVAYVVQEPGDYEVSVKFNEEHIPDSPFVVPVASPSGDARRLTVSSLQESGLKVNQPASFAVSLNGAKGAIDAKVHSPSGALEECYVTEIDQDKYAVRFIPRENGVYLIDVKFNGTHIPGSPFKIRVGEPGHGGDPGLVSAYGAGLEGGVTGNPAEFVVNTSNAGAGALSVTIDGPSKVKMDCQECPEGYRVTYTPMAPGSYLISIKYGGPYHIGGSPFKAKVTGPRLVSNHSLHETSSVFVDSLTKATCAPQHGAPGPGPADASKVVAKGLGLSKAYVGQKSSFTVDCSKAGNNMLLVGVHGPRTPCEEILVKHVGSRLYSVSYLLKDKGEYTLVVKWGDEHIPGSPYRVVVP

| Molecule | share of the protein content of the 90 kDa band co-immunoprecipitated with FcγRIIa [1] [%] | share of the protein content of the 55 kDa band co-immunoprecipitated with FcγRIIa [1] [%] | share of the protein content of the 75 kDa band co-immunoprecipitated with FcγRIIa [1] [%] | also measured |
| --- | --- | --- | --- | --- |
| filamin | 1 |  |  |  |
| actin |  | 3 | 1 |  |
| SRC kinase Lyn (from UniProt P07948 2-512) (enzyme) |  | 1 |  |  |
| gelsolin (from UniProt P06396 1-731) | 6 |  |  |  |
| coagulation Factor V (from UniProt P12259 29-2224) |  |  | 4 |  |
| nexilin (from UniProt Q0ZGT2 1-675) |  |  | 3 |  |
| fibrinogen (other, human) chain 1: ADSGEGDFLAEGGGVRGPRVVERHQSACKDSDWPFCSDEDWNYKCPSGCRMKGLIDEVNQDFTNRINKLKNSLFEYQKNNKDSHSLTTNIMEILRGDFSSANNRDNTYNRVSEDLRSRIEVLKRKVIEKVQHIQLLQKNVRAQLVDMKRLEVDIDIKIRSCRGSCSRALAREVDLKDYEDQQKQLEQVIAKDLLPSRDRQHLPLIKMKPVPDLVPGNFKSQLQKVPPEWKALTDMPQMRMELERPGGNEITRGGSTSYGTGSETESPRNPSSAGSWNSGSSGPGSTGNRNPGSSGTGGTATWKPGSSGPGSTGSWNSGSSGTGSTGNQNPGSPRPGSTGTWNPGSSERGSAGHWTSESSVSGSTGQWHSESGSFRPDSPGSGNARPNNPDWGTFEEVSGNVSPGTRREYHTEKLVTSKGDKELRTGKEKVTSGSTTTTRRSCSKTVTKTVIGPDGHKEVTKEVVTSEDGSDCPEAMDLGTLSGIGTLDGFRHRHPDEAAFFDTASTGKTFPGFFSPMLGEFVSETESRGSESGIFTNTKESSSHHPGIAEFPSRGKSSSYSKQFTSSTSYNRGDSTFESKSYKMADEAGSEADHEGTHSTKRGHAKSRPVRGIHTSPLGKPSLSP chain 2: QGVNDNEEGFFSARGHRPLDKKREEAPSLRPAPPPISGGGYRARPAKAAATQKKVERKAPDAGGCLHADPDLGVLCPTGCQLQEALLQQERPIRNSVDELNNNVEAVSQTSSSSFQYMYLLKDLWQKRQKQVKDNENVVNEYSSELEKHQLYIDETVNSNIPTNLRVLRSILENLRSKIQKLESDVSAQMEYCRTPCTVSCNIPVVSGKECEEIIRKGGETSEMYLIQPDSSVKPYRVYCDMNTENGGWTVIQNRQDGSVDFGRKWDPYKQGFGNVATNTDGKNYCGLPGEYWLGNDKISQLTRMGPTELLIEMEDWKGDKVKAHYGGFTVQNEANKYQISVNKYRGTAGNALMDGASQLMGENRTMTIHNGMFFSTYDRDNDGWLTSDPRKQCSKEDGGGWWYNRCHAANPNGRYYWGGQYTWDMAKHGTDDGVVWMNWKGSWYSMRKMSMKIRPFFPQQ chain 3: YVATRDNCCILDERFGSYCPTTCGIADFLSTYQTKVDKDLQSLEDILHQVENKTSEVKQLIKAIQLTYNPDESSKPNMIDAATLKSRKMLEEIMKYEASILTHDSSIRYLQEIYNSNNQKIVNLKEKVAQLEAQCQEPCKDTVQIHDITGKDCQDIANKGAKQSGLYFIKPLKANQQFLVYCEIDGSGNGWTVFQKRLDGSVDFKKNWIQYKEGFGHLSPTGTTEFWLGNEKIHLISTQSAIPYALRVELEDWNGRTSTADYAMFKVGPEADKYRLTYAYFAGGDAGDAFDGFDFGDDPSDKFFTSHNGMQFSTWDNDNDKFEGNCAEQDGSGWWMNKCHAGHLNGVYYQGGTYSKASTPNGYDNGIIWATWKTRWYSMKKTTMKIIPFNRLTIGEGQQHHLGGAKQAGDV | 80 | 33 | 24 | fold induction of ADP-induced activation of platelets (surface expression of P-selectin) after addition of fibrinogen [2]: 1.5 fold; fold induction of ADP-induced activation of platelets by added fibrinogen after pretreatment with IV.3 (100 µg/ml) [2]: 0.9 fold; fold induction of ADP-induced activation of platelets by added fibrinogen in the presence of tirofiban (0.5 µg/ml) [3]: 1.2 fold |
| coagulation Factor XIII (enzyme, human, UniProt P00488 2-732, looked up) SETSRTAFGGRRAVPPNNSNAAEDDLPTVELQGVVPRGVNLQEFLNVTSVHLFKERWDTNKVDHHTDKYENNKLIVRRGQSFYVQIDFSRPYDPRRDLFRVEYVIGRYPQENKGTYIPVPIVSELQSGKWGAKIVMREDRSVRLSIQSSPKCIVGKFRMYVAVWTPYGVLRTSRNPETDTYILFNPWCEDDAVYLDNEKEREEYVLNDIGVIFYGEVNDIKTRSWSYGQFEDGILDTCLYVMDRAQMDLSGRGNPIKVSRVGSAMVNAKDDEGVLVGSWDNIYAYGVPPSAWTGSVDILLEYRSSENPVRYGQCWVFAGVFNTFLRCLGIPARIVTNYFSAHDNDANLQMDIFLEEDGNVNSKLTKDSVWNYHCWNEAWMTRPDLPVGFGGWQAVDSTPQENSDGMYRCGPASVQAIKHGHVCFQFDAPFVFAEVNSDLIYITAKKDGTHVVENVDATHIGKLIVTKQIGGDGMMDITDTYKFQEGQEEERLALETALMYGAKKPLNTEGVMKSRSNVDMDFEVENAVLGKDFKLSITFRNNSHNRYTITAYLSANITFYTGVPKAEFKKETFDVTLEPLSFKKEAVLIQAGEYMGQLLEQASLHFFVTARINETRDVLAKQKSTVLTIPEIIIKVRGTQVVGSDMTVTVEFTNPLKETLRNVWVHLDGPGVTRPMKKMFREIRPNSTVQWEEVCRPWVSGHRKLIASMSSDSLRHVYGELDVQIQRRPSM | 1 |  | 38 | fold induction of ADP-induced activation of platelets by added Factor XIII in the presence of tirofiban (0.5 µg/ml) [3]: 0.8 fold |
